# In publication PMC2691842 (Nucleic Acids Research, 2009):
# Target: the molecule itself
# Experiment: AUC
protein,measurement,value
"C.Esp1396I controller (C) protein (natural protein, UniProt Q8GGH0 1-79, looked up) MESFLLSKVSFVIKKIRLEKGMTQEDLAYKSNLDRTYISGIERNSRNLTIKSLELIMKGLEVSDVVFFEMLIKEILKHD",Kd,~600 nM
same,stoichiometry N,2
